Source: doi:10.1101/464131

Molecular target: BS69 CC-MYND domain (amino acids 480-602) (human) (UniProt Q15326)
Experiment: ITC

Sequence of BS69 CC-MYND domain (amino acids 480-602) (human) (Q15326 480-602): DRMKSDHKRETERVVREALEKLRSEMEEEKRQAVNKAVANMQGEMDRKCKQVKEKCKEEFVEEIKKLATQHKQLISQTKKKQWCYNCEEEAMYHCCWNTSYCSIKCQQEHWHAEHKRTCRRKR
Sequence of type 1 EBNA2 polypeptide T1 EBNA2_(381-445) (domain or fragment) (P12978 381-445): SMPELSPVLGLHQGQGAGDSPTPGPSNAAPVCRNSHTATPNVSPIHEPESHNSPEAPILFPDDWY

| Substance | Kd | stoichiometry N (molar ratio EBNA2 : BS69CC-MYND monomer) |
| --- | --- | --- |
| type 1 EBNA2 polypeptide T1 EBNA2_(381-445) (domain or fragment) | 0.95 µM | 0.42 |
| type 1 EBNA2 motif 2 peptide (435-445) | 47.7 µM | – |
